This series concerns the molecule itself. In words: Thioflavin T amyloid formation assay.

This is an account of results in paper PMC3684756 (MicrobiologyOpen, 2013).

B1: His-Lsm4^1–170 (domain or fragment)
chain: MLPLYLLTNAKGQQMQIELKNGEIIQGILTNVDNWMNLTLSNVTEYSEESAINSEDNAESSKAVKLNEIYIRGTFIKFIKLQDNIIDKVKQQINSNNNSNSNGPGHKRYYNNRDSNNNRGNYNRRNNNNGNSNRRPYSQNRQYNNSNSSNINNSINSINSNNQNMNNGLG
On to B1, for which the binding result was “binds”.
